Residue numbers refer to the chain shown, from its start. Names may count otherwise.
T1: EBOV GP on rVSV particles (Ebola virus (EBOV), UniProt Q05320 33-676)
T1 sequence: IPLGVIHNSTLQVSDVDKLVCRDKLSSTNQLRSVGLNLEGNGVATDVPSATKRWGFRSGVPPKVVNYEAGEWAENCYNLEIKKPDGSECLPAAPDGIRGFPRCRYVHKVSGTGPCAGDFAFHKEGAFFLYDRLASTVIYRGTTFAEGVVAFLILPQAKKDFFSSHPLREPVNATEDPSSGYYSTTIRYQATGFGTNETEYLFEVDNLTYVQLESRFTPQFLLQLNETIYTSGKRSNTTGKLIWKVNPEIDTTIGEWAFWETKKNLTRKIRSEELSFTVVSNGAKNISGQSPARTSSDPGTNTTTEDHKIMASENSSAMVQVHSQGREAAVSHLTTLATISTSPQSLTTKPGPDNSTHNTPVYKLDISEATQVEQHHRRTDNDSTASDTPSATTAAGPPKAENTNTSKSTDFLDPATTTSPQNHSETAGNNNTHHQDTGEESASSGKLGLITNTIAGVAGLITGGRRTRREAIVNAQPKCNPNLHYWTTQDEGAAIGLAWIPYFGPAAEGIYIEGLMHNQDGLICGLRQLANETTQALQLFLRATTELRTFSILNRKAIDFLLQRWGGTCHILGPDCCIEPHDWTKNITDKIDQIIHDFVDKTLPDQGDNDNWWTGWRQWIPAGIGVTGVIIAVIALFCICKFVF

T2: SUDV GP on rVSV particles (Sudan virus (SUDV), UniProt Q66814 33-676)
T2 sequence: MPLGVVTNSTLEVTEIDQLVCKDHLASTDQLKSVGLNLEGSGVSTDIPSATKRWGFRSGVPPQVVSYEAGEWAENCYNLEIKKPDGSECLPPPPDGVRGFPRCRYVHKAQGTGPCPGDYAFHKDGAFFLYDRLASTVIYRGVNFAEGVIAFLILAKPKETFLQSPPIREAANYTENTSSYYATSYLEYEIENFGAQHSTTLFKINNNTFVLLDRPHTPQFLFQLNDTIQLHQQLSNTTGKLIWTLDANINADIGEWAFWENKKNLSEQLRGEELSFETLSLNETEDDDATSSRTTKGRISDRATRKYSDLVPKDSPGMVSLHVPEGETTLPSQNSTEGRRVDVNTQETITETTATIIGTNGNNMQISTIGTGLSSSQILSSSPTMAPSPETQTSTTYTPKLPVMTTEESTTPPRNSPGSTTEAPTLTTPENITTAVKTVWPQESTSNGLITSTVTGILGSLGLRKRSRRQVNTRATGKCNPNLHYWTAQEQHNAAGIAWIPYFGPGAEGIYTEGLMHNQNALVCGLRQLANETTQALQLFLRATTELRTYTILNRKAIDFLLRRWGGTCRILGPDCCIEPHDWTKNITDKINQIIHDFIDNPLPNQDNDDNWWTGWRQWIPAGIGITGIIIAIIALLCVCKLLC

T3: RESTV GP on rVSV particles (Reston virus (RESTV), UniProt Q66799 34-677)
T3 sequence: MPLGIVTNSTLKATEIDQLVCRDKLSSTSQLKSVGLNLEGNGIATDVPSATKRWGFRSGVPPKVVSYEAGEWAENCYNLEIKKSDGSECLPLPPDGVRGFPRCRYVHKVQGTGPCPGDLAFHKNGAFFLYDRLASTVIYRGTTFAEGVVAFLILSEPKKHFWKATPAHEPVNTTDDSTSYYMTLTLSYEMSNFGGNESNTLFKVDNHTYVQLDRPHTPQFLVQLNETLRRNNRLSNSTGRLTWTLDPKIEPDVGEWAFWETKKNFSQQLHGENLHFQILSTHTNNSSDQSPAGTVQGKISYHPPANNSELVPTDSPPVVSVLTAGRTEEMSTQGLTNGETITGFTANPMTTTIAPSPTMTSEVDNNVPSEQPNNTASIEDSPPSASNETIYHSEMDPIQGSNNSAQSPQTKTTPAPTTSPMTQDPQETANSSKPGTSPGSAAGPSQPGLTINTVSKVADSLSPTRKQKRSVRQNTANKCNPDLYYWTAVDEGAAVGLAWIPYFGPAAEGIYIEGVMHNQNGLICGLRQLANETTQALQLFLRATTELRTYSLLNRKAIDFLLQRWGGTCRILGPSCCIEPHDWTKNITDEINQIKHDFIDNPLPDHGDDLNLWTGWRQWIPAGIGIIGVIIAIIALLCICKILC

T4: TAFV GP on VSV pseudotype particles (Tai Forest virus (TAFV), UniProt Q66810 33-676)
T4 sequence: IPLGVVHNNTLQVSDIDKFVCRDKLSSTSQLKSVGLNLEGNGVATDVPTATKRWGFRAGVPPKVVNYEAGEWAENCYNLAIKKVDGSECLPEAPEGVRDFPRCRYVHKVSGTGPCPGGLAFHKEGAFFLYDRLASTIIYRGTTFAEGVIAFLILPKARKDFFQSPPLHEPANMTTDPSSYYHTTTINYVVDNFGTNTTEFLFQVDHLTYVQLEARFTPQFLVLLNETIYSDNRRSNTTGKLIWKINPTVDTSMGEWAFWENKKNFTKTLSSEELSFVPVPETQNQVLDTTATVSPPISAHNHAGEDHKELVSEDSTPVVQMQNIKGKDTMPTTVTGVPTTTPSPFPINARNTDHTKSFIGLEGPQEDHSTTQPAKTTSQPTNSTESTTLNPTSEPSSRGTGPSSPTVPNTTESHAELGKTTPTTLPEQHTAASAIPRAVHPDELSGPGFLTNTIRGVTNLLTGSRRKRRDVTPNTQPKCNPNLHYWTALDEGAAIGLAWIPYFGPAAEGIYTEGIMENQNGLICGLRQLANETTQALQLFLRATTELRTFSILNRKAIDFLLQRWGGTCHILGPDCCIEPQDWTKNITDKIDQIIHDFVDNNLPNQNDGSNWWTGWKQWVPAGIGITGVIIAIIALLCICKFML

B1: PE-87 D99A (antibody, V domains shown)
VH: QVQLVQSGVTLVQPGGSLRVSCAASGFTFSSYAMSWVRQAPGKGLEWVSAISGLGGSTYYADSVKGRFTISRDNSKNTLYLQMNSLRAEDTAVYYCAKAHRVWAAGYHFDYWGQGALVTVSS
VL: DIVLTQSPSTLSASVGDRVTITCRASQSISSWLAWYQQKPGEAPKLLISDASSLESGVPSRFSGSGSGTEFTLTISSLQPDDFATYYCQQYYSSPTFGGGTKVEIK
B2: PE-87 H100A (antibody, V domains shown)
VH: B1 VH with A99D, H100A
VL: B1 VL
B3: PE-87 D110A (antibody, V domains shown)
VH: B1 VH with A99D, D110A
VL: B1 VL
B4: PE-87 R101A (antibody, V domains shown)
VH: B1 VH with A99D, R101A
VL: B1 VL
B5: PE-87 Y107A (antibody, V domains shown)
VH: B1 VH with A99D, Y107A
VL: B1 VL
B6: PE-87 Y111A (antibody, V domains shown)
VH: B1 VH with A99D, Y111A
VL: B1 VL
B7: PE-87 G106A (antibody, V domains shown)
VH: B1 VH with A99D, G106A
VL: B1 VL
B8: PE-87 H108A (antibody, V domains shown)
VH: B1 VH with A99D, H108A
VL: B1 VL
B9: PE-87 F109A (antibody, V domains shown)
VH: B1 VH with A99D, F109A
VL: B1 VL
B10: PE-87 V102A (antibody, V domains shown)
VH: B1 VH with A99D, V102A
VL: B1 VL
B11: PE-87 W103A (antibody, V domains shown)
VH: B1 VH with A99D, W103A
VL: B1 VL

target: T1, EBOV GP on rVSV particles; test: cell-based or functional assay

Question: Which “IC50 (nM), neutralization of rVSV-GP” value does the source give for B1 here?
Answer: > 500 nM

Question: B2 was tested. Which “IC50 (nM), neutralization of rVSV-GP” value did it give?
Answer: 1 nM

Question: How did the “IC50 (nM), neutralization of rVSV-GP” value turn out when B3 was run?
Answer: 2 nM

Question: B4 was tested. Which “IC50 (nM), neutralization of rVSV-GP” value did it give?
Answer: 3.2 nM

Question: For B5, which “IC50 (nM), neutralization of rVSV-GP” value is on record?
Answer: 3 nM

Question: Which “IC50 (nM), neutralization of rVSV-GP” value does the source give for B6 here?
Answer: 0.8 nM

Question: For B7, which “IC50 (nM), neutralization of rVSV-GP” value is on record?
Answer: 0.8 nM

Question: B8 was tested. Which “IC50 (nM), neutralization of rVSV-GP” value did it give?
Answer: 3.2 nM

Question: For B9, which “IC50 (nM), neutralization of rVSV-GP” value is on record?
Answer: 4.2 nM

Question: Which “IC50 (nM), neutralization of rVSV-GP” value does the source give for B10 here?
Answer: 0.6 nM

target: T2, SUDV GP on rVSV particles; test: cell-based or functional assay

Question: How did the “IC50 (nM), neutralization of rVSV-GP” value turn out when B2 was run?
Answer: 1 nM

Question: B3 was tested. Which “IC50 (nM), neutralization of rVSV-GP” value did it give?
Answer: 1.5 nM

Question: With B4 as the binder, how does the “IC50 (nM), neutralization of rVSV-GP” value read?
Answer: 1.5 nM

Question: For B5, which “IC50 (nM), neutralization of rVSV-GP” value is on record?
Answer: > 350 nM

Question: Which “IC50 (nM), neutralization of rVSV-GP” value does the source give for B6 here?
Answer: 0.8 nM

Question: For B7, which “IC50 (nM), neutralization of rVSV-GP” value is on record?
Answer: 0.9 nM

Question: With B8 as the binder, how does the “IC50 (nM), neutralization of rVSV-GP” value read?
Answer: 2.1 nM

Question: With B9 as the binder, how does the “IC50 (nM), neutralization of rVSV-GP” value read?
Answer: 2.1 nM

Question: Which “IC50 (nM), neutralization of rVSV-GP” value does the source give for B10 here?
Answer: 1.1 nM

target: BDBV GP on rVSV particles (Bundibugyo virus (BDBV)); test: cell-based or functional assay

Question: Which “IC50 (nM), neutralization of rVSV-GP” value does the source give for B2 here?
Answer: 0.4 nM

Question: With B11 as the binder, how does the “IC50 (nM), neutralization of rVSV-GP” value read?
Answer: > 200 nM

Question: How did the “IC50 (nM), neutralization of rVSV-GP” value turn out when B3 was run?
Answer: 0.9 nM

Question: With B4 as the binder, how does the “IC50 (nM), neutralization of rVSV-GP” value read?
Answer: 0.4 nM

Question: With B5 as the binder, how does the “IC50 (nM), neutralization of rVSV-GP” value read?
Answer: 0.8 nM

Question: For B6, which “IC50 (nM), neutralization of rVSV-GP” value is on record?
Answer: 0.4 nM

Question: With B7 as the binder, how does the “IC50 (nM), neutralization of rVSV-GP” value read?
Answer: 0.4 nM

Question: For B8, which “IC50 (nM), neutralization of rVSV-GP” value is on record?
Answer: 0.6 nM

Question: With B9 as the binder, how does the “IC50 (nM), neutralization of rVSV-GP” value read?
Answer: 0.3 nM

Question: With B10 as the binder, how does the “IC50 (nM), neutralization of rVSV-GP” value read?
Answer: 0.2 nM

target: T3, RESTV GP on rVSV particles; test: cell-based or functional assay

Question: Which “IC50 (nM), neutralization of rVSV-GP” value does the source give for B2 here?
Answer: 0.2 nM

Question: For B3, which “IC50 (nM), neutralization of rVSV-GP” value is on record?
Answer: 0.4 nM

Question: Which “IC50 (nM), neutralization of rVSV-GP” value does the source give for B4 here?
Answer: 0.2 nM

Question: For B5, which “IC50 (nM), neutralization of rVSV-GP” value is on record?
Answer: 1.3 nM

Question: How did the “IC50 (nM), neutralization of rVSV-GP” value turn out when B6 was run?
Answer: 0.1 nM

Question: For B7, which “IC50 (nM), neutralization of rVSV-GP” value is on record?
Answer: 0.2 nM

Question: B8 was tested. Which “IC50 (nM), neutralization of rVSV-GP” value did it give?
Answer: 0.5 nM

Question: For B9, which “IC50 (nM), neutralization of rVSV-GP” value is on record?
Answer: 0.4 nM

Question: B10 was tested. Which “IC50 (nM), neutralization of rVSV-GP” value did it give?
Answer: 0.2 nM

target: T4, TAFV GP on VSV pseudotype particles; test: cell-based or functional assay

Question: B1 was tested. Which “IC50 (nM), neutralization of rVSV-GP” value did it give?
Answer: > 350 nM

Question: For B2, which “IC50 (nM), neutralization of rVSV-GP” value is on record?
Answer: 0.8 nM

Question: For B11, which “IC50 (nM), neutralization of rVSV-GP” value is on record?
Answer: > 150 nM

Question: B3 was tested. Which “IC50 (nM), neutralization of rVSV-GP” value did it give?
Answer: 2.1 nM

Question: With B4 as the binder, how does the “IC50 (nM), neutralization of rVSV-GP” value read?
Answer: 1.9 nM

Question: With B5 as the binder, how does the “IC50 (nM), neutralization of rVSV-GP” value read?
Answer: 0.8 nM

Question: With B6 as the binder, how does the “IC50 (nM), neutralization of rVSV-GP” value read?
Answer: 1.1 nM

Question: For B7, which “IC50 (nM), neutralization of rVSV-GP” value is on record?
Answer: 0.8 nM

Question: With B8 as the binder, how does the “IC50 (nM), neutralization of rVSV-GP” value read?
Answer: 2.2 nM

Question: How did the “IC50 (nM), neutralization of rVSV-GP” value turn out when B9 was run?
Answer: 2.8 nM

Question: For B10, which “IC50 (nM), neutralization of rVSV-GP” value is on record?
Answer: 1 nM

From patent publication US20180244758A1 (MAPP BIOPHARMACEUTICAL, published 2018)
